Legend:
Assay in all cases: Southwestern blot; no change vs WT; EMSA: LightShift kit binding buffer, 20 min, room temperature, 5% native PAGE; Southwestern: 2 ug protein on nitrocellulose renatured in TNED buffer, 20 pmol biotin DNA, 12 h, room temperature; SPR: Biacore, NTA chip (~100 RU protein), buffer not given
Conditions in all cases: protein: recombinant; tags: His (pET-30a); label: 5'-C6-biotin (both oligos by primer name); blunt
MbovP475∆DB3 = target: T1, MbovP475∆DB3 (Mycoplasma bovis HB0801, UniProt A0A454AQS7 1-338)
T1 sequence: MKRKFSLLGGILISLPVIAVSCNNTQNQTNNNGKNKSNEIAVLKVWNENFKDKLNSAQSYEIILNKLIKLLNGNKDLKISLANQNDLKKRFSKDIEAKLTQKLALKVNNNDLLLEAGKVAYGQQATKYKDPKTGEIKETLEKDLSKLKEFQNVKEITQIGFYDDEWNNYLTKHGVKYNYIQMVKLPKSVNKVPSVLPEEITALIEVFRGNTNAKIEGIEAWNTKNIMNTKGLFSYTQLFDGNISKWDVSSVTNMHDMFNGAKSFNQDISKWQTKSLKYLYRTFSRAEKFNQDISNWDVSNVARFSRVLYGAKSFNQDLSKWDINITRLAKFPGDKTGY

MbovP475∆DB2 = target: T2, MbovP475∆DB2 (Mycoplasma bovis HB0801, UniProt A0A454AQS7 1-298+333-368, internal_change)
T2 sequence: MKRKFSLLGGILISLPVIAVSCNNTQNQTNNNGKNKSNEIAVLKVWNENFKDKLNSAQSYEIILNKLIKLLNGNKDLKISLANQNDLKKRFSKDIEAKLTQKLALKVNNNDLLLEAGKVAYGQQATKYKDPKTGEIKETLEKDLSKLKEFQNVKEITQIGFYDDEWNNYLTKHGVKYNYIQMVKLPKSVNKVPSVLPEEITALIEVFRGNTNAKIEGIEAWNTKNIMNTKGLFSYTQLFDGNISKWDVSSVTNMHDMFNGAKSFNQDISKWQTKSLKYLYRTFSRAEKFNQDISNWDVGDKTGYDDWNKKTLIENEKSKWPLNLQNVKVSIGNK

rMbovP475-265NQ266 = target: T3, rMbovP475-265NQ266 (Mycoplasma bovis HB0801, UniProt A0A454AQS7 1-368, N265A;Q266A)
T3 sequence: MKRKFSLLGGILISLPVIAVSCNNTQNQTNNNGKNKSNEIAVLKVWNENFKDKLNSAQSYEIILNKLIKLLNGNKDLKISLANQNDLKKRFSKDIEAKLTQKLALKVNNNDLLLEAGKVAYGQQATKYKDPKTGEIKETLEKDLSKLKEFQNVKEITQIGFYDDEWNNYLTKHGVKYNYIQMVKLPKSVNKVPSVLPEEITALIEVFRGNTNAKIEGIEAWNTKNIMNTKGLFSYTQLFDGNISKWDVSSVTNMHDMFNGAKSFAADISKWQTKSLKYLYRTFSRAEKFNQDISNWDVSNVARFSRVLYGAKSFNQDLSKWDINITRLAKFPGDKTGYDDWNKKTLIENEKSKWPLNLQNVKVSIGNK

Measured: binding result

B1: MCF2L2 promoter (+53 to +112) (dsDNA)
DNA 1: CAACTAACACTTTACGGGAGTGGGCACATCATTCCTGAATAAGGACACGCGCGTGCGCAC
DNA 2: GTGCGCACGCGCGTGTCCTTATTCAGGAATGATGTGCCCACTCCCGTAAAGTGTTAGTTG
binds: all assays above

B2: CRYAB promoter (+108 to +167) (dsDNA)
DNA 1: TCTCTTCCCAGCTTCTACTTCCCTGAGCCCCTTCTACCTTCGGCCGCCCTCATTTCTGCG
DNA 2: CGCAGAAATGAGGGCGGCCGAAGGTAGAAGGGGCTCAGGGAAGTAGAAGCTGGGAAGAGA
binds: all assays above

Source: paper PMC9487752, “Novel mycoplasma nucleomodulin MbovP475 decreased cell viability by regulating expression of CRYAB and MCF2L2”
